The results in this text go back to patent US20200339694A1 (published 2020).

Like-named read-outs stand apart in the source and are kept apart here.

In test [1] the target is T1, human IL6R (R and D systems cat #227-SR/CF) (human, UniProt P08887 20-358).
T1 chain: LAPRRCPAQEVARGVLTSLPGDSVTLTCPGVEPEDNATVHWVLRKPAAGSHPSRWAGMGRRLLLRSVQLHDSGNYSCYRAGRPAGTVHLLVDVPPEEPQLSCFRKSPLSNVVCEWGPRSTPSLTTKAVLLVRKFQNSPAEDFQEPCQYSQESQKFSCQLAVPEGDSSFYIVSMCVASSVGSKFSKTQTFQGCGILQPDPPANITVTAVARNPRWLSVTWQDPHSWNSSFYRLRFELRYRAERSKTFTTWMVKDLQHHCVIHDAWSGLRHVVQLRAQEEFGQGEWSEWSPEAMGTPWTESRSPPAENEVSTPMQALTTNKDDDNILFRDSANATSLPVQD
The test can be described thus: ELISA; apparent, printed beside curve. (An ELISA detects its analyte on a solid surface through an enzyme-linked reagent.)

Test [2] deals with T1, human IL6R (R and D systems cat …). The test can be described thus: ELISA; apparent, printed beside curve.

B1: Av1 antibody (antibody, V domains shown)
VH: QVQLQESGPGLVRPSQTLSLTCTVSGYSITSDHAWSWVRQPPGRGLEWIGYISYSGITTYNPSLKSRVTISRDNSKNTLYLQMNSLRAEDTAVYYCARSLARTTAMDYWGQGSLVTVSS
VL: DIQMTQSPSSLSASVGDRVTITCRASQDISSYLNWYQQKPGKAPKLLIYYTSRLHSGVPSRFSGSGSGTDFTFTISSLQPEDIATYYCQQGNTLPYTFGQGTKVEIKR
Consider B1, for which the Kd in test [1] stood at 2.2 nM.

B2: AV1-based activatable anti-IL6R antibody with Generation 1 mask Peptide 1 and substrate MMP/BV728 (antibody, V domains shown)
VH: QVQLQESGPGLVRPSQTLSLTCTVSGYSITSDHAWSWVRQPPGRGLEWIGYISYSGITTYNPSLKSRVTISRDNSKNTLYLQMNSLRAEDTAVYYCARSLARTTAMDYWGQGSLVTVSS
VL: YRSCNWNYVSIFLDCDIQMTQSPSSLSASVGDRVTITCRASQDISSYLNWYQQKPGKAPKLLIYYTSRLHSGVPSRFSGSGSGTDFTFTISSLQPEDIATYYCQQGNTLPYTFGQGTKVEIKR
Turning to B2, in test [2], the Kd was found to be 19.2 nM.
